Assay results published in the Human Domainome abundance scans (Beltran et al. 2025).

B1: Friend leukemia integration 1 transcription factor, residues 116 to 197; numbered along this chain, Q01543 (parent)
chain: NMTTNERRVIVPADPTLWTQEHVRQWLEWAIKEYSLMEIDTSFFQNMDGKELCKMNKEDFLRATTLYNTEVLLSHLSYLRES
B2: Transcription factor SOX-4, residues 60 to 127; numbered along this chain, Q06945 (parent)
chain: KRPMNAFMVWSQIERRKIMEQSPDMHNAEISKRLGKRWKLLKDSDKIPFIREAERLRLKHMADYPDYK

Variants of: B1
Test: abundance fitness (aPCA) (normalised: wild type 0, dead -1); higher = more abundant; growth selection in yeast, the domain comes from the species named
Settings: Homo sapiens

Abundance fitness, by site and new letter:
A63: T -0.106; N 0.36; G 0.018; Y 0.085; D 0.012; L 0.022; R -0.041; P -0.954; K -0.089; W 0.002; H -0.161; V 0.003; M 0.024; F -0.123; E -0.213
L66: P -0.015; K -0.038; A -0.021; G -0.108; V 0.045; Y -0.036; E 0.016; C -0.039; S 0.013; W 0.009; F -0.574; Q -0.066; T -0.089; I 0.085; H 0.008
Y67: G 0.017; T -0.006; M -0.111; L -0.125; R 0.079; W -0.153; E 0.212; C -0.058; N -0.014; Q 0.059; A -0.051; V 0.064; F -0.219; H 0.085; D -0.027; S 0.074; P -0.008; K -0.045
S82: P -0.125; F -0.112
S77: P -0.216; T 0.032
T65: D -0.162; H -0.283; F -1.09; A -0.424; I -0.908; N -0.042; Q -0.235; P -0.085; K -0.47; G -0.058; C -0.028; V -0.966; L -0.615; R -0.372; S -0.011; W -1.03
N68: D 0.156; T -0.146; A -0.233; S -0.083; G -0.125; V -0.376; F -1.02; Q -0.167; E -0.022; C -0.292; W -0.911; Y -0.797; L -0.859; R -0.547; K -0.898
F60: S -0.881; C -0.545; T -0.918; V -0.433; R -1; W -0.114; G -1.1; A -0.75; M -0.277; L -0.116; Y 0.152; K -0.801; P -0.921; Q -0.938
S74: V -0.567; D 0.014; G 0.026; R 0.042; Q -0.405; W -0.561; P -0.417; K 0.133; E 0.271; F -0.404; C -0.101; A 0.029; M -0.049; T -0.076; Y 0.134; L -0.28; H -0.066
E81: D -0.092
L61: E -0.16; P -1.07; V -0.13; T -0.025; M -0.123; F -0.307; W -0.04; G -0.236; N -0.371; K -0.335; D -0.449; A -0.13; C -0.396; Q 0.009; H -0.36; I -0.268; S -0.105
V71: M -0.065; P -0.401; F -0.215; L -0.093; E -0.368; C 0.094; R 0.02; G -0.677; K 0.051; W -0.047; Q -0.035; S -0.147; I 0.263; T -0.145; N -0.391; Y -0.239; A -0.006
L76: T -0.916; R -0.723; F -0.555; M -0.218; N -0.799; V -0.432; H -0.841; I -0.391; Q -0.879; P -0.7; G -0.28; S -0.553; E -0.794
H75: Y -0.201
Y78: V 0.124
T69: S -0.028; Q -0.744; E -0.673; M -0.444; G -0.184; K -0.816; L -0.561; F -0.799; C -0.214; Y -0.295; A 0.084
D59: I -0.607; S -0.126; P -0.882; H -0.177; C -0.046; V -0.211; K -0.052; A -0.035; F -0.144; R -0.327; M -0.17; G -0.058; E -0.184; T -0.189; W -0.106; Q -0.087; Y -0.045
L73: K -0.199; E -0.343; R -0.144; P -0.854; F -0.1; N -0.631; G -0.27; H -0.173; V -0.085; T -0.044; C -0.057; Y -0.281; A -0.133; M -0.061; I -0.21; W 0.039
R80: S 0.103
L79: F -0.657
L72: F -0.231; P -0.78; R -1.12; W -1.1; G -1.01; K -1; M -0.099; V -0.6; Q -0.949; T -0.814; I 0.063; A -0.463; C -0.372
K57: Y -0.145; R -0.052; T -0.086; V -0.013; S -0.319; W -0.124
E70: W -0.944; Q -0.078; S -0.107; T -0.213; A -0.598; I -0.726; P -0.859; D 0.092; M -0.239; L -0.507; R -0.335; V -0.363; H -0.001; K -0.167; N -0.124; C -0.448
R62: V 0.066; G -0.016; H -0.073; F -0.327; A -0.159; K 0.087; S 0.017; Q 0.071; T -0.117; D -0.4; C -0.23; L 0.007; P -0.213; N -0.021; W -0.325; I -0.728; E -0.01
T64: G -0.126; S -0.613; I -0.793; R -0.807; M -0.02; L -0.262; K -0.796; C -0.505; P -0.704; A -0.404; E -0.792; Q -0.1; W -0.537; N -0.531
E58: C -0.11; T -0.053; N 0.048; A 0.119; G 0.028; P 0.01; M -0.19; R -0.032; F -0.228; V -0.17; K -0.162; Y 0.015; L -0.117; W -0.153

Variants of: B2
Test: as above
Settings: Homo sapiens

Abundance fitness of substitutions, site by site:
D63: P -0.117
R15: A -0.38
L56: R -0.254
K39: L -0.244; W -0.758; A 0.093; S -0.027
A6: G -0.079
K42: M -0.465; I -0.609
I13: R -0.401
D43: G -0.27
L40: P -1.29; F -0.34
Y67: G 0.119
S11: P -0.99
R37: Q -0.093; A 0.133
V9: C -0.258; T -0.38
Q12: V -0.434; P -0.812; L -0.194; I -0.101
I30: K -0.999; G -0.769
P3: V -0.136; Q -0.048; W -0.561
K32: H -0.154; L -0.08
E52: V -0.556; S -0.712; R -0.322; K -0.515
G35: W 0.142
Q21: L -0.349; N -0.382
I47: D -0.128; N -0.322
E54: I -0.701
P48: W -0.493
L34: S -0.621
R2: I -0.012
